Target: Mt-PolDom K217A (UniProt P9WNV3 1-300, K217A)
Test: EMSA
Settings: protein: recombinant; label: 32P 5'-end label

B1: 1-nt gapped SP1C/T13C/DG-P (dsDNA)
DNA 1: AGAAGTGTATCTAGTACTCACTGTGATC
DNA 2: GATCACAGTGAGTAC
DNA 3: AGATACACTTCT
modifications: 5'-phosphate on DG
**Q.** Does B1 bind?
**A.** Result: binds
